Laboratory results as given in the supplement of paper PMC12042874.
± gives the uncertainty stated by the source.

Test: amyloid nucleation score (Sup35N fusion, yeast selection) (log enrichment); library NNK3; higher = more nucleation; inactive = no reads after selection
Method in brief: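 The nucleation score is the DiMSum log enrichment of output over input reads, centred on the mode score of non-aggregating sequences. Only sequences with 100 or more input reads were scored, using Illumina sequencing of input and output plasmid inserts. Psi-negative yeast expressing Sup35N fused to peptides of 20 random codons were induced 24 hours with 100 μM copper sulfate and grown 7 days at 30°C on medium lacking adenine and uracil.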

Row | Substance | amyloid nucleation score
1 | EMTGTYEVCFMT | inactive
2 | PIFWGSSDDYLCRWTLTMCH | -0.3 ± 0.37
3 | LSYCKRHIRRRLFVG | -0.208 ± 0.6
4 | HVAKVGTFNWTHNGYDNCFV | inactive
5 | VWSTGRLLRGKSWELISNDT | inactive
6 | SIILGCCLWLHLMH | 2.08 ± 0.059
7 | LSSWFHFLSNTATRQKVWRS | inactive
8 | VGSGTQSWVRNEMRSMLDLW | inactive
9 | LKDAHQWIYLW | -0.779 ± 0.88
10 | WLSDNSSNDLQYHYSSSKIM | inactive
11 | VNPIERWA | inactive
12 | CNQTSM | inactive
13 | VRSKLYGPDVYPTHLGTAVM | inactive
14 | AVICYS | inactive
15 | CIFMRIYGVC | inactive
16 | RGQCVPDAGQVRNGTCMRV | inactive
17 | NSFSRINKDIISSNSVG | inactive
18 | YTLAFECLPSLTMQVRNWMM | inactive
19 | NAQDPIGSGYVQ | inactive
20 | MCDGFVVVNLILFWKVEMI | inactive
21 | KYRVGMSSWFNLAHYGNLCG | 0.228 ± 0.25
22 | FYMSNDCP | inactive
23 | TVLCRYVAYLVVSANYLDEC | inactive

Row | Substance | amyloid nucleation score
24 | WSTLFVIILPTKTLGYYCFW | inactive
25 | GFTAGRFPCGSFWLGSCCWY | 0.231 ± 0.36
26 | NIIYRVGSQYSL | inactive
27 | HRAPMSHPVCLMIKWLLWVL | inactive
28 | SIFSSCLSPYSFSYIKLLSC | 0.504 ± 0.26
29 | SRFNMFNLS | 0.163 ± 0.34
30 | VEEYHNQ | 0.858 ± 0.13
31 | VIFVGFWQWYSYISELDCNP | inactive
32 | ICSII | inactive
33 | DSRKRKVRF | inactive
34 | AQSEAGDF | inactive
35 | FNETFYGKVGDILISLCRVL | inactive
36 | TVVMWSSKDREVDSIDMSFV | inactive
37 | YSGGCGWIMSRNSVRYSCIC | inactive
38 | TVLCAC | inactive
39 | IYVDVNSDP | inactive
40 | FIVDVYICAVSLLVGFLDAE | inactive
41 | RMCKTATVIHYGLFINLTEF | inactive
42 | IQFLTNKQALLEKFPGKSPW | inactive
43 | PRDNILTPQHV | inactive
44 | YQCFVKELYKECISHWARRK | inactive
45 | NFFITTDPPGFR | inactive
46 | LAPHLSTIMCIEHNS | inactive

Row | Substance | amyloid nucleation score
47 | RFTYGDRCMKMRMPNFETAH | inactive
48 | YFNYSLFISVCS | inactive
49 | GNFKCELVSALSDNIICPYM | inactive
50 | FLSCCKGCLCCCQRPLSIYY | inactive
51 | GRANGFQQIDLCEYHREYLN | inactive
52 | IWPNRHGLKNVLRDQREATL | inactive
53 | FFRSCWCFVLLLNDCMITSL | inactive
54 | YVVVLMSLHWRNWGALRRTC | inactive
55 | IFFVRSDAFKFSILSVNASL | -0.37 ± 0.56
56 | VSTRFFSACTLHFQSSMPYC | inactive
57 | PYARRMWHGVLVRDIGLYTR | inactive
58 | NSGAA | inactive
59 | PLGERRTPSYPVASLP | -0.223 ± 0.88
60 | AKSVSLHIPTCRYHLTYIAF | inactive
61 | VVIVLLKFR | inactive
62 | LCTESFIISR | inactive
63 | ELLCLIYMDLHVCWQGLTMQ | inactive
64 | RDVIRRVVRMHLQLYMFMVG | -0.135 ± 0.98
65 | QSFLDTSPHLDHVVNNSIKH | inactive
66 | VNVTIGIYKRHRYLWSGIAM | inactive
67 | SHRGDAVLVFCLVCLVILDG | inactive
68 | HKYSEGSLNTFRRLRRSRFS | inactive
69 | YSIMFRVLVGT | inactive

Row | Substance | amyloid nucleation score
70 | SVVDRGASRFKRTVNVSNKA | inactive
71 | CYIGCNLEILNRRDKPFIIR | inactive
72 | LQFNISYRMFSEVCVFLLVW | inactive
73 | CLYIKVFEFNS | 2.16 ± 0.076
74 | LNQVSLLVGNMRWDCDIKSA | inactive
75 | HLYLSSVENLKHLFKGVSVH | -0.381 ± 0.9
76 | VSRVSLKRRYALM | -1.13 ± 2.5
77 | PAGWGWSCCFDFLSSISKIY | inactive
78 | NLSRRIWTHYHTQVNLIGID | inactive
79 | TFRTTGM | inactive
80 | PFCVMDLSIKWGNMYYFLQT | inactive
81 | KVNAFTCTKSFGLCVSESFT | inactive
82 | LSLWRWSVHS | inactive
83 | DVALTWPCYVDTTKCQMIMY | inactive
84 | RRVTFGGMAHSERKRYCLFT | inactive
85 | ATDKV | inactive
86 | YIFVT | inactive
87 | SLEVLIYDGKCMSCDDVVNG | inactive
88 | HGHSQFL | inactive
89 | VFNFFYAEMGLMIKFWIDNL | 1.08 ± 0.081
90 | RMPYKMQFFCNLWLSVYSTL | inactive
91 | LVSTEKWEYLGQCARRELRF | -0.884 ± 2.4
92 | KHVGIVMH | inactive

Row | Substance | amyloid nucleation score
93 | AFCNTIETDMNSAPVFLRAA | inactive
94 | LRRTIYFTDDRCLWLDFAPL | 0.272 ± 0.43
95 | TLLRHVNNDGGSVSLGTMLA | inactive
96 | WSDWRLIKFNFRRSYLCLLW | inactive
97 | RPRMPVRLWWYTKLGYFKDR | inactive
98 | FWTCTSSPVLMRWRRSGFNV | inactive
99 | FANYGEKIWCFGAMLGKRLS | inactive
100 | ISCIGPFCSTIPLIKLNLIE | 1.3 ± 0.1
101 | MKLHTPIEMLEGTHIGHVCG | inactive
102 | VNDVLASLTLCMWLVEWGMK | inactive
103 | VLISVLSRLRCMSGGLYTPN | inactive
104 | LIAYRVGHSGSAQYSSTCGW | 1.04 ± 0.13
105 | NYMVFNIGVGCFTISNTK | 3.14 ± 0.069
106 | TINIQCALGMNQT | 1.17 ± 0.11
107 | VYINVNDVALKHRFLKPV | inactive
108 | EFFCWIDSSIGSRYFSMTED | inactive
109 | HCNFMRFCLRAFSSGMHWLF | inactive
110 | DGWFNQCASESSFKVHHGS | inactive
111 | TAYFFSVARVMVDLTTALLA | 0.161 ± 0.33
112 | YYAATPGSYLAGGRWITLF | 0.219 ± 0.47
113 | KDVPPFFSSSFNWAGLRKDK | 0.436 ± 0.41
114 | FSRLFCNSALCIMRFVNTSS | 1.52 ± 0.088
115 | SLCVVGP | -0.107 ± 0.6

Row | Substance | amyloid nucleation score
116 | VLCCLDYIYPVGALGYYACI | inactive
117 | DLCGNPVPVQSSGLGYDGLV | inactive
118 | CTFFGKLLSCFVYSGMVQ | inactive
119 | NLLRNAVFIYCKHLNLFDAM | 0.815 ± 0.12
120 | SHSLS | inactive
121 | LSGLESVRSSYDWVVGGWIS | -0.329 ± 1.3
122 | FYITFFECD | inactive
123 | LVYAKNMLFDNKDWCV | inactive
124 | GKSIKGYGHSVFTVVLTVGY | inactive
125 | DDSPFLGRFK | inactive
126 | ILFTYCSYINREVLRWMQDS | inactive
127 | EKLVTCKDYFNRASTVTSLG | inactive
128 | ATQLCCIVCRGLGPGMGEES | inactive
129 | FFYDLMYLIMV | inactive
130 | WTESWYKYMNKDVSSHCKQS | inactive
131 | AFPTVLLHWRN | inactive
132 | LDFCFLGHRWRSFSGSYRKS | inactive
133 | VMVSYG | inactive
134 | ILRNRNDIQNAYCRNKY | inactive
135 | YNRADSIRFQ | inactive
136 | NLSTFQIYDR | inactive
137 | YNDGVCIILFNLPFVCRRST | 2.85 ± 0.05
138 | GLDLSSYPEL | inactive

Row | Substance | amyloid nucleation score
139 | MGTRFVLGPVQNLCDIGSAW | inactive
140 | SSLIFLFDGKHRVLIYNLSN | 0.482 ± 0.47
141 | FICFNFHRKECVEKASSSCK | 1.39 ± 0.064
142 | EHNAKEHITLGLTSWPNRLG | inactive
143 | CSNWLWWYYYVRMYRSVRFS | -0.368 ± 0.64
144 | TRNIMRSIMVPSTWRVFITV | inactive
145 | TPRKTLSDVLFFRLILS | inactive
146 | LLHRTWVFNSELPWCRYVLK | inactive
147 | FCRMVPLIEWSVTRFRDCVG | inactive
148 | GSNRQTVRFNWS | inactive
149 | PSVIFRDWFEKMWLDRISVV | inactive
150 | RLRQTATCIRFVFAGNVLAN | 0.018 ± 1.2
151 | DVCTLSELSVFPSLSISQ | inactive
152 | EVVSLLTFMLASLLSISVVN | inactive
153 | YLYCRAWIWLDNSMLSWS | inactive
154 | SWPVCWDHIWQSWGLTTSAV | inactive
155 | SYPERMLWSSVMADFKMRRP | inactive
156 | RASTISLGKLVQLYLYSRRL | 0.468 ± 0.3
157 | KVKRFY | 1.17 ± 0.19
158 | VFQRVNISVCINVVKFMSSM | 1.65 ± 0.069
159 | CSQPCRHFYKVKGGYTFKCL | inactive
